From the nanobody polyreactivity screen of Harvey et al. (2022) come the findings set out here.

This data set can be described thus: yeast display, Sf9 membrane polyspecificity reagent, FACS + sequencing; frameworks hold sequencing errors. The essentials: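 Sorting gates, low and high (top ~1%), were placed on anti-HA fluorescence to track expression and on streptavidin fluorescence to track reagent binding. A clone's polyreactivity label is taken from the gate it came out of. The reagent was 10% biotinylated, detergent-solubilized Sf9 membrane, applied for 1 hour at 4 °C to galactose-induced yeast display cells.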
“QVQLVESGGGLVQAGGSLRLSCAASGSIFPRNAMGWYRQAPGKERELVAAIRKSGGSTYYADSVKGRFTISRDNAKNTVYLQMNSLKPEDTAVYYCAKPYSVCCWQSPIYNYWGQGTQVTVSS”: the “polyreactivity (PSR sort gate)” value is “low polyreactivity”.

As to “QVQLVESGGGLVQAGGSLRLSCAASGSIIYKYAMGWYRQAPGKERELVAAINSGGRTYYADSVKGRFTISRDNAKNTVYLQMNSLKPEDTAVYYCNAGTYYPGRYDYWGQGTQVTVSS”, the “polyreactivity (PSR sort gate)” value is listed as “low polyreactivity”.

Take “QVQLVESGGGLVQAGGSLRLSCAASGSTFAFYDMGWYRQAPGKERELVAIIDWSGGRTYYADSVKGRFTISRDNAKNTVYLQMNSLKPEDTAVYYCNAENTYLGSRYRPYNYWGQGTQVTVSS”: the “polyreactivity (PSR sort gate)” value is “low polyreactivity”. Next, “QVQLVESGGGLVKAGGSLRLSCAATGFTLSWYDMGWYRPAPGKERELVATISRGGITYYADSVKGRFTISRDNAKNTVYLQMNSLKPEDTAVYYCAADYRYGWYRYDYWGQGTQVTVSS”: “high polyreactivity”; “QVQLVESGGGLVQAGGSLRLSCAASGFIFGVYAMGWYRQAPGKERELVAAITSTGSTYYADSVKGRFTISRDNAKNTVYLQMNSLKPEDTAVYYCATYYWLGLSLYDYWGQGTQVTVSS”: “low polyreactivity”. Under “QVQLVESGGGLVQAGGSLRLSCAASGRIFYTYAMGWYRQAPGKERELVSSITWSDGNTYYADSVKGRFTISRDNAKNTDYLQMNSLKPEDTAVYYCAAGDSFYVYLWPTYDYWGQGTQVTVSS” stands “low polyreactivity”; under “QVQLVESGGGLVQAGGSLRLSCAASGFIFRRYARGWYRQAPGKERELVASISWRGGSTYYADSVKGRFTISRDNAKNTVYLQMNSLKPEDTAVYYCAARIGATYWVDWTHRAYDYWGQGTQVTVSS”, “high polyreactivity”; under “QVQLVESGGGLDQAGGSLRLTWAASGSIIGRNFMGLYRQAPGKEREFLAAIRSSGATTYYADSVKGRFTISRDNAKYTVFLQMTSLKPEDTAVYYCNARPPYYTVQTGGYDYWGQGTQVTVSS”, “low polyreactivity”. Take “QVQLVESGGGLVQAGGSLRLSCAATGSIIQWNAMGWYRQAPGKERELVAAISWSGTRTYFADSVKGRFTISRDNAKNTVYLQMNSLKPEDTAVYYCAFRGGKPTYRYDYWGQGTQVTVSS”: the “polyreactivity (PSR sort gate)” value is “high polyreactivity”. Next, “QVQLEESGGGLVQAGGSLRVSCSASGSTYLDYHMGWYRQAPGQQRELVAAITDSGGRTYYADSVKARFTISRDNAKNTVYFQMKSLKPEDTAVYYCARDRGKITPYDYWGQGTQVTVSS”: “low polyreactivity”; “QVQLVESGRGLVQAGGSLRLSCAASGSTFNSYAMGWYRQAPGKERELVAAIRWSGSSTYYADSVKGRFTISRDNAKNTVYLQMNSLKAEDTAVYYCSKGYSYGRPWDIYYYWGQGTQVTVSS”: “low polyreactivity”; “QVQLVESGGGLVQAGGSLRFSCAASGSTFKAYAMGWYRQAPGKERDLVARITYSGDITYYADSVKGRFTISRDNAKNTVYVQMNSLKRDDTAVFYCNDGFFVLEYDYWGQGTQLTVSS”: “low polyreactivity”. With “QVQLVESGGGLVQAGGSHRLSCAASGSTFYGYAMGWYRQAPGKESELVAAIRFSGDRTYYADSVKGRFTISRDNAKNTVYLQMNSLKPEDTAVYYCAAYGYPYQRKYGSWGQGTQVTVSS”, the “polyreactivity (PSR sort gate)” value is “high polyreactivity”. “QVQLVESGGGLVQAGGSLRLSCAASGSTFIIYSMGWYRQAPGKERELVATISTRGTSTYYADSVKGRFTISRDNAKNTVYLQMNSLKPEDTAVYYCNARRRGYGNRYTFDYWGQGTQVTVSS”: the “polyreactivity (PSR sort gate)” value is given as “high polyreactivity”. Next, “QVQLVESGGGLVQAGGSLRLSCAASGRIFGLNAMGWYRQAPGKEREFVAAITWRGGRTYYADSVKGRFTISRDNAKNTVYLQMNSLKPEDTAVYYCAADGGSTLDYYWGQGTQVTVSS”: “low polyreactivity”; “QVQLVESGGGLVQAGGSLRLSCAASGRIFGYYAMGWYRQAPGKERELVAAITRNGGSTYYADSVKGRFTISRDNAKNTVYLQMNSLKPEDTAVYYCAATKGGGRGYWGQGTQVTVSS”: “high polyreactivity”. For “QVQLVESGGGLVQAGGSLRLSCAASGRIFYYTMVWYRQAPGKERELVAAISWSGGSTYYADSVKGRFTISRDNAKNTVYLQMNSLKPEDTAVYYCATRSRRLYHYDYWGQGTQVTVSS”, the “polyreactivity (PSR sort gate)” value is “high polyreactivity”. For “QVQLVESGGGLVQAGGSLRLSCAASGFTFDANAMGWYRQAPGKERELVAAITRVGSTFYADSVKGRFTISRDNAKNTVYLQMNSLKPEDTAVYYCNAARDHVSGYDYWGQGTQVTVSS”, the “polyreactivity (PSR sort gate)” value is “low polyreactivity”. Under “QVQLVESGGGLVQAGGSLRLSCAASGIIFRNYAMGWYRQAPGKERELVATIRYRGGRTYADSVKGRFTISRDNAKNTVYLQMNSLKPEDTAVYYCNARRLSVYGDYDYWGQGTQVTVSS” stands “high polyreactivity”; under “QVQLVESGGGLVQAGGSLRLSSAASGYIFTYYTMGCSRQAPGKERELVAAITYSGSRTRYADSVKGRFTISRDNAKNTVYLQMNSLKPEDNAVYYCAAVYRLKSGGEWRDSQFGYWGQGTQVTVSS”, “high polyreactivity”; under “QGHLVESGGGLVQAGGSLRLSCAASGRIIRWNAMGWYRQGPGKERELFAGISGSGGSTYYADSVKGRFTISRDNAKNSVYLQMNSLKPEDTAVYYCNADADSSTYVGILQRLDYWGQGTQVTVSS”, “low polyreactivity”. With “QVQLVESGGGLVQAGGSLRLSCDASGSILRYYAMGWYRQAPGKERELVADISTSGGSTYYADSVKGRFTISRDNAKNTVYLQMNSLKPEDTAVYYCAKPWYSSGFDYWGQGTQVTVSS”, the “polyreactivity (PSR sort gate)” value is “high polyreactivity”. Next, “QVQLVESGGGLVQAGGSLRLRCAASGINFGYYAMGWYRQAPGKERELVAAITSGASTDYADSVKGRFTISRDNAKNTVYLQMNSLKPEDTAVYYCNADTSASTYTFPFDYCGQGTQVTVSS”: “low polyreactivity”; “QVQLQESGGGLVHACGSLRPSCAASGSISDSWTMSWYRQAPGKEREFVAGITWGGTTNYADSVKGRFTISRDNAKNTVYLQMNSLKPEDSAVYYCNARQRTYYRTHRIRHKGNGYWGQGTQVTVSS”: “low polyreactivity”. Take “QVQLVESGGGLVQAGGSLRLICAASGSTFYRNVMGWYRQAPGKERELVAAISSGGSTYYADSVKGRFTISRDNAKNTVYLQMNSLKPEDTAVYYCAARKRYSYDYWGQGTQVTVSS”: the “polyreactivity (PSR sort gate)” value was “low polyreactivity”.

As for “QVQLVESGGGLVQAGGSLRLSCAASGSIFPPNAMGWYRQAPGKERELVAAITWSGGSTYYADSVKGRFTISRDNAKNTVYLQRNSLKPEDTAVYYCAKEGARSYNVRAYYYRNYYYWGQGTQVTVSS”, the “polyreactivity (PSR sort gate)” value is reported as “high polyreactivity”. On to “QVQLVESGGGLVQAGGSLRLSCAASGIILHGYAMGWYRQAAGKEREFVATITVSGSSTYYADSVKGRFTISRDNAKNTVYLQMNSLKPEDTAVYYCAARSWVIVYGLQYDYWGQGTQETVSS”, for which the “polyreactivity (PSR sort gate)” value is “high polyreactivity”. Next, “QVQLVESGGGLVQAGGSLRLSCAASGFTFGNYAMGWYRQAPGKERELVAAISSRGGSTYYADSVKGRFTISRDNAKNSVYLQMNSLKPEDTAVYYCNALRLEVDMGYWGQGTQITVSS”: “high polyreactivity”; “QVQLVESGGGLVQAGGSLRLSCAASGFTFYKYTMGWYRQAPGKERELVAAIRSSGGRTYYADSVKGRFTISRDNAKNTVYLQMNSLKPEDTAVYYCNAVVDRLIFWQFDYWGQGTQVTVSS”: “high polyreactivity”; “QVQLVDSGGGLVQAGGSLRLSCAASGNILRKYAMGWYRQAPGKERELVAAISSSGGRTYYADSVKGRFTISRDNAKNTVYLQMYSLKPEDTAVYYCAKDPYGRLQPRPRFGYWGQGTQVTVTS”: “high polyreactivity”. Under “QVQLVESGGGLVQAGGSLRLSCAASGSTFDYNDMGWYRQAPGKERELVASITFSGGTYDADSVKGRFTISRDNAKTTVYLQMNSLTPEDTAVYYCNAVYFFYIDPWNSYPTYDYWGQGTQVTVSS” stands “high polyreactivity”; under “QVQLVESGGGLVQAGGSRRLSCAASGSTFRGNAMGWYRQAPGKERELVAASTWSGDDTYYADSVKGRFTISRDNAKNTVYLQMNSLKPEDTPVSYCAADLAAFTLAVADTYDYWGQGTQVTVSS”, “low polyreactivity”. Next, “QVQMQESRGGLVQAGGSLRLSCAASGYISYLDFMGWYRQAPGKERELVAGITTGATTNYADSVKGRFTISRDNGKNIVYQQMNSLKPEDTAVYFCAVIGGDTRGHPYWGQGTQLTVSS”: “low polyreactivity”; “QVQLVESGGGLVQAGGSLRLSCAASGRIFHYYAMGWYIKAPGKERELVAAITSSGGSTYYADSVKGRFTISRDNAKNTVYLKMNSLKPEDTAVYYCAARGRRVSAYYYWGQGTQVTVSS”: “high polyreactivity”. Turning to “QVQLEESGGGLVQAGGSLRLSCAAYGRTFPNYAMGRYRQAPGKEREMVADISSSGVSTYYADSVKGRFTISRDNAKNTVYLKMNSLKPEDTAVYYCAARSWWFQRGEYWGQGTQVTVSS”, the “polyreactivity (PSR sort gate)” value is “high polyreactivity”. Next, “QFQLVESGGGLVQAGGSLRLSCAASGFNFQYNAIGWYRQAPGKERELVAAITWTGTSTYADSVKGRFTISRDYAKNTVYLQMNSLKPEDTSVYYCAARYYAPRWFRYDYWGQGTQVTVSS”: “low polyreactivity”; “QVQLVESGGGLFQAGGRLRLSCAASGYTFYLNAMGWYRQAPGKEREFVAVIDDSGDSTDYADSVKGRFTISRDNAKNTVYLQMHSLKPEDTAVYYCAANEGGTGDDYWGQGTQVTVSS”: “low polyreactivity”. Turning to “QVQRVESGGGLVQAGGSLRLSCAASGSIFEGYAMGWYRQAPGKQRELVARITSDDDSTYYADSVKGRFTISRDNAKFSVYLQMNSLIPEDTAVYYCNADYYWTSLAMDSWGQGTQVTVCS”, the “polyreactivity (PSR sort gate)” value is reported as “low polyreactivity”. Next, “QVQLVESGGGLVQAGGSLRLSCAASGRTFVYYAMVWYRQAPGKERELVATISRRGGGTYYADSVKGRFTISRDNAKNTVYLQMNSLKPEDTAVYYCNAKWTSHGTYAEDYWGQGTQVTVSS”: “high polyreactivity”; “QVQLVESGGGLVQAGGSLRLSCAASGSTFARYAMGWYRQAPRKERELVAAISRSGGSTNYADSVKGRFTISRDNAKNTVYLQMNSLKPEDTAVYYCAVRSGYYDKYVRGYDYWGQGTQVTVSS”: “high polyreactivity”; “QVQLVDSGGGLVQAGGSLRLSCAASGSTFYFYAMGWYRQAPGKQRELVAAITWTDGDTYYADSVKGRFTISRDIAKNTVYLQMNSLKPEDTAVYYCATDSFWYEYDYWGQGTQVTVSS”: “high polyreactivity”.
